{"source": "paper PMC4990422", "about": "“Coupling between the DEAD-box RNA helicases Ded1p and eIF4A” (eLife, 2016)", "binders": {"B1": {"name": "eIF4A (enzyme, S. cerevisiae, UniProt P10081 1-395, looked up)", "chain": "MSEGITDIEESQIQTNYDKVVYKFDDMELDENLLRGVFGYGFEEPSAIQQRAIMPIIEGHDVLAQAQSGTGKTGTFSIAALQRIDTSVKAPQALMLAPTRELALQIQKVVMALAFHMDIKVHACIGGTSFVEDAEGLRDAQIVVGTPGRVFDNIQRRRFRTDKIKMFILDEADEMLSSGFKEQIYQIFTLLPPTTQVVLLSATMPNDVLEVTTKFMRNPVRILVKKDELTLEGIKQFYVNVEEEEYKYECLTDLYDSISVTQAVIFCNTRRKVEELTTKLRNDKFTVSAIYSDLPQQERDTIMKEFRSGSSRILISTDLLARGIDVQQVSLVINYDLPANKENYIHRIGRGGRFGRKGVAINFVTNEDVGAMRELEKFYSTQIEELPSDIATLLN", "notes": "eIF4A, DEAD-box RNA helicase, S. cerevisiae, wild type; also called wild-type yeast eIF4A; source: recombinant, purified as described (Hilliker et al., 2011)"}}, "key": {"eIF4G [1]": {"target": "T1, eIF4G (S. cerevisiae, UniProt P39935 1-952; P07260 1-213)", "T1 construct": "eIF4G1, scaffolding protein of translation initiation, S. cerevisiae; present in the preparations of eIF4G; the model treats G as one unit; also called eIF4G1; S•Tag-eIF4G; source: recombinant, expression and purification previously described (Hilliker et al., 2011)", "T1 sequence (looked up) 1": "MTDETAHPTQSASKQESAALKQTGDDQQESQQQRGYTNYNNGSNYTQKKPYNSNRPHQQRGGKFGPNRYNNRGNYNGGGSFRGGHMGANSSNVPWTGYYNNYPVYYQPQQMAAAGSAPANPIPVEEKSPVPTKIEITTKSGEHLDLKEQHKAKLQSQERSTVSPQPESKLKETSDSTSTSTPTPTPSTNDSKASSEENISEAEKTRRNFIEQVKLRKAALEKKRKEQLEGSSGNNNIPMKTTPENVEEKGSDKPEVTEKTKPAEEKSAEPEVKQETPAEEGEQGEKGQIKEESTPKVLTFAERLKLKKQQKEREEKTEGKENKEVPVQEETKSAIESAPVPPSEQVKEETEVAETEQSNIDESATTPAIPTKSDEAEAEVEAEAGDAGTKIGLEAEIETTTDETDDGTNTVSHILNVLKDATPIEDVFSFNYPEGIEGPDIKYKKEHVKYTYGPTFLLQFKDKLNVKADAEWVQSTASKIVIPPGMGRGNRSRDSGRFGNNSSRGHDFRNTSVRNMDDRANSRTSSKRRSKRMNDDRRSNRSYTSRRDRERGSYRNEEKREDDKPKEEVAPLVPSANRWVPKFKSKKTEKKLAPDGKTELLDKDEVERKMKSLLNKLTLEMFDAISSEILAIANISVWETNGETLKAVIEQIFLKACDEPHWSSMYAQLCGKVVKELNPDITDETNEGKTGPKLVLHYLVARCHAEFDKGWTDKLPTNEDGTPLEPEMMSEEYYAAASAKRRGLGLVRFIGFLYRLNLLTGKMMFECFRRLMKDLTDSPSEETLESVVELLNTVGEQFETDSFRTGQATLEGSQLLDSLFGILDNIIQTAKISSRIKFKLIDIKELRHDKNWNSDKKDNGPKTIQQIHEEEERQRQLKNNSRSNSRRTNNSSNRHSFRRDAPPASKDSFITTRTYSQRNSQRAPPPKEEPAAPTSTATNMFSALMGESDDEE", "T1 sequence (looked up) 2": "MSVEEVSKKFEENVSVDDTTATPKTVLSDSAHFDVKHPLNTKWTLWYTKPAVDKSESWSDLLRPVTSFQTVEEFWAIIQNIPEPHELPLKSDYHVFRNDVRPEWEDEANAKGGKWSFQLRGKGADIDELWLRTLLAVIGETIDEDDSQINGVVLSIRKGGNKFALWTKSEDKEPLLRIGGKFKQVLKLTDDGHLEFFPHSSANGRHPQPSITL", "test": "global fit of RNA unwinding time courses to a thermodynamic model; K1/2 of a binding step calculated with the model of Figure 4A; RNA bound to the binder before the step, no ATP", "details": "both partners purified"}, "Ded1p-eIF4G complex [2]": {"target": "T2, Ded1p-eIF4G complex (S. cerevisiae, UniProt P06634 1-604; P39935 1-952; P07260 1-213)", "T2 construct": "Ded1p, S. cerevisiae, wild type, as Wm1; eIF4G1, S. cerevisiae, as in Wm3; eIF4E, S. cerevisiae, as in Wm3; present in the preparations of eIF4G; State of the thermodynamic model; also called DG; DTG; source: formed from the purified recombinant proteins; copies: + +", "T2 sequence (P06634 whole entry, one chain of several)": "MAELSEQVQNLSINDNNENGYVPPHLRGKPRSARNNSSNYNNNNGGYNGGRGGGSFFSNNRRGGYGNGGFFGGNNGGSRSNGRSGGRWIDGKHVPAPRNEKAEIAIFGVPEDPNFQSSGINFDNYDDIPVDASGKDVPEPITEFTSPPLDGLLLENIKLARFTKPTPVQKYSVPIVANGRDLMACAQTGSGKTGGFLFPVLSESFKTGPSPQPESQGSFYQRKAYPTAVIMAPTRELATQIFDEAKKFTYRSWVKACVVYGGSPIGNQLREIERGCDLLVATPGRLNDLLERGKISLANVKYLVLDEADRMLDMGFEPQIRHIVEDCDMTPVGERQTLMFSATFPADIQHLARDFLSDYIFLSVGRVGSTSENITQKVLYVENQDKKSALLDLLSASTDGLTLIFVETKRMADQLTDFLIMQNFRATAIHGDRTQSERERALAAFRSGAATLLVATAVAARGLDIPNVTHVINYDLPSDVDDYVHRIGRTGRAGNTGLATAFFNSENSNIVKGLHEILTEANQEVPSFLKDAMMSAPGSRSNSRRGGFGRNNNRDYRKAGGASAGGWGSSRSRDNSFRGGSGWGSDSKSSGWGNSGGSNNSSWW", "test": "global fit of RNA unwinding time courses to a thermodynamic model; K1/2 of a binding step calculated with the model of Figure 4A; RNA bound to the binder before the step, no ATP", "details": "both partners purified"}, "[3]": {"target": "HA-tagged Ded1p (His6-Ded1p-HA3) (S. cerevisiae), P06634", "sequence (P06634 whole entry)": "as the sequence (P06634 whole entry, one chain of several) above", "test": "pull-down; Ded1p-HA held on anti-HA antibody and Protein G Dynabeads; 300 nM S•Tag-eIF4G and 1500 nM eIF4A added together; 20 µg/mL RNases A,B; 8°C overnight; washed with HRB-Na100 buffer; Western blot", "details": "remark: other sources report otherwise"}, "eIF4G [4]": {"target": "T1, eIF4G", "test": "global fit of RNA unwinding time courses to a thermodynamic model; K1/2 of a binding step calculated with the model of Figure 4A; RNA bound to the binder before the step, ATP bound to eIF4A", "details": "both partners purified"}, "[5]": {"target": "Ded1p (wild type, N-terminal His6-tag) (S. cerevisiae), P06634", "sequence (P06634 whole entry)": "as the sequence (P06634 whole entry, one chain of several) above", "test": "cross-linking; formaldehyde 1% (v/v), 30 min, room temperature; Ded1p 0.3 µM, eIF4A 2 µM or as indicated, RNA 2 µM (16 bp, 25 nt 3'-overhang), 0.5 mM ADPNP-MgCl2, unwinding buffer; Western blot with α-Ded1p", "details": "remark: other sources report otherwise"}, "Ded1p-eIF4G complex [6]": {"target": "T2, Ded1p-eIF4G complex", "test": "global fit of RNA unwinding time courses to a thermodynamic model; K1/2 of a binding step calculated with the model of Figure 4A; RNA bound to the binder before the step, ATP bound to Ded1p", "details": "both partners purified"}, "eIF4G [7]": {"target": "T1, eIF4G", "test": "global fit of RNA unwinding time courses to a thermodynamic model; K1/2 of a binding step calculated with the model of Figure 4A; step without RNA, ATP bound to eIF4A", "details": "both partners purified"}, "Ded1p-eIF4G complex [8]": {"target": "T2, Ded1p-eIF4G complex", "test": "global fit of RNA unwinding time courses to a thermodynamic model; K1/2 of a binding step calculated with the model of Figure 4A; step without RNA, ATP bound to eIF4A", "details": "both partners purified"}, "eIF4G [9]": {"target": "T1, eIF4G", "test": "global fit of RNA unwinding time courses to a thermodynamic model; K1/2 of a binding step calculated with the model of Figure 4A (Kintek Global Explorer; 16 bp duplex, 25 nt 3' overhang); step without RNA and without ATP", "details": "both partners purified"}, "Ded1p-eIF4G complex [10]": {"target": "T2, Ded1p-eIF4G complex", "test": "global fit of RNA unwinding time courses to a thermodynamic model; K1/2 of a binding step calculated with the model of Figure 4A (Kintek Global Explorer; 16 bp duplex, 25 nt 3' overhang); step without RNA and without ATP", "details": "both partners purified"}}, "data": [{"binder": "B1", "values": [{"measurement": "Kd", "setting": "eIF4G [1]", "result": 25, "unit": "nM"}, {"measurement": "Kd", "setting": "Ded1p-eIF4G complex [2]", "result": 0.003, "unit": "nM"}, {"measurement": "relative band intensity (pull-down compared to input), with eIF4G present", "setting": "[3]", "result": 25, "unit": "%"}, {"measurement": "Kd", "setting": "eIF4G [4]", "result": 49, "unit": "nM"}, {"measurement": "stoichiometry N", "setting": "[5]", "result": 1}, {"measurement": "Kd", "setting": "Ded1p-eIF4G complex [6]", "result": 0.006, "unit": "nM"}, {"measurement": "Kd", "setting": "eIF4G [7]", "result": 1000, "unit": "nM"}, {"measurement": "Kd", "setting": "Ded1p-eIF4G complex [8]", "result": 0.28, "unit": "nM"}, {"measurement": "Kd", "setting": "eIF4G [9]", "result": 500, "unit": "nM"}, {"measurement": "Kd", "setting": "Ded1p-eIF4G complex [10]", "result": 0.14, "unit": "nM"}]}]}
